# Substitutions are numbered along the chain they refer to.
# B1: VEGFBII010 (VHH, not shown: small tags and cut ends)
# chain: EVQLVESGGGLVQTGDSLRLSCEVSGRTFSSYSMGWFRQAQGKEREFVVAISKGGYKYDSVSLEGRFTISKDNAKNTVYLQINSLKPEDTAVYYCASSRAYGSSRLRLADTYEYWGQGTQVTVSSGGGGSGGGGSGGGGSGGGGSGGGGSGGGGSGGGGSEVQLVESGGGLVQTGDSLRLSCEVSGRTFSSYSMGWFRQAQGKEREFVVAISKGGYKYDSVSLEGRFTISKDNAKNTVYLQINSLKPEDTAVYYCASSRAYGSSRLRLADTYEYWGQGTQVTVSS
# B2: VEGFBII021 (VHH, not shown: small tags and cut ends)
# chain: EVQLVESGGGLVQTGDSLRLSCEVSGRTFSSYSMGWFRQAQGKEREFVVAISKGGYKYDSVSLEGRFTISKDNAKNTVYLQINSLKPEDTAVYYCASSRAYGSSRLRLADTYEYWGQGTQVTVSSGGGGSGGGGSGGGGSGGGGSGGGGSGGGGSGGGGSGGGGSEVQLVESGGGLVQPGGSLRLSCVASGIRFMSMAWYRQAPGKHRELVARISSGGTTAYVDSVKGRFTISRDNSKNTVYLQMNSLKAEDTAVYYCNTFSSRPNPWGAGTQVTVSS
# B3: VEGFBII23A03 (VHH, not shown: small tags and cut ends)
# VHH: EVQLVESGGGLVQPGDSLKLSCVASGRTFSSYSMGWFRQAQGKEREFVVAISSGGYIYDSVSLQGRFTISRDNTKNTVYLQTPSLKPEDTAVYYCAASRAYGSSRLRLADTYDYWGQGTQVTVSS
# B4: VEGFBII22A11 (VHH, not shown: small tags and cut ends)
# VHH: B3 VHH with V23A, A24F, G35A, Y56F, S60A, Q64E
# B5: VEGFBII22E04 (VHH, not shown: small tags and cut ends)
# VHH: B3 VHH with F29S, Y56S, G102A
# B6: VEGFBII23A08 (VHH, not shown: small tags and cut ends)
# VHH: B3 VHH with P14T, K19R, S53N, I57K, Q64E, T82I, P83N
# B7: VEGFBII23D11 (VHH, not shown: small tags and cut ends)
# VHH: B3 VHH with K19R, V23A, A24F, G35A, Y56F, S60A, Q64E
# B8: VEGFBII23E05 (VHH, not shown: small tags and cut ends)
# VHH: B3 VHH with G8E, F29S
# B9: VEGFBII27D08 (VHH, not shown: small tags and cut ends)
# VHH: B3 VHH with P14T, K19R, V23A, I57K, Q64E, K75Q, T82I, P83N, S104G
# B10: VEGFBII27G07 (VHH, not shown: small tags and cut ends)
# VHH: B3 VHH with F29S, K43Q
# B11: VEGFBII30C09 (VHH, not shown: small tags and cut ends)
# VHH: B3 VHH with V23I, F29S, K43Q
# B12: VEGFBII40F02 (VHH, not shown: small tags and cut ends)
# VHH: B3 VHH with V23A, A24F, G35A, Y56F, S60A, Q64E, D89G
# B13: VEGFBII41B05 (VHH, not shown: small tags and cut ends)
# VHH: B3 VHH with D16G, K19R, V23A, A24F, Y56F, S60A, Q64E
# B14: VEGFBII41G03 (VHH, not shown: small tags and cut ends)
# VHH: B3 VHH with V23A, A24F, G35A, Y56F, S60A, Q64E, D72E
# B15: VEGFBII42F11 (VHH, not shown: small tags and cut ends)
# VHH: B3 VHH with F29S, M34V
# B16: VEGFBII61A01 (VHH, not shown: small tags and cut ends)
# VHH: B3 VHH with P14A, D16G, K19R, V23A, A24F, I57K, S60A, Q64E, G102A
# B17: VEGFBII62F02 (VHH, not shown: small tags and cut ends)
# VHH: B3 VHH with V23A, A24F, S52A, S60A, Q64E, N76D
# B18: VEGFBII42D05 (VHH, not shown: small tags and cut ends)
# VHH: EVQLVESGGGLVQPGDSLKLSCAFSGRTFSSYSMGWFRQAQGKEREFVVAISSSGGYIYDSVSLEGRFTISRDNTKNTVYLQTPSLKPEDTAVYYCAASRAYGSSRLRLADTYDYWGQGTQVTVSS
# B19: VEGFBII22A10 (VHH, not shown: small tags and cut ends)
# VHH: B18 VHH with V93D
# B20: VEGFBII22B06 (VHH, not shown: small tags and cut ends)
# VHH: B18 VHH with F24A
# B21: VEGFBII22B07 (VHH, not shown: small tags and cut ends)
# VHH: B18 VHH with P14A, K19R, F24A, G56N, I58K, T83I, P84N, A110G
# B22: VEGFBII23A09 (VHH, not shown: small tags and cut ends)
# VHH: B18 VHH with S30G, T75S, A110P
# B23: VEGFBII23F05 (VHH, not shown: small tags and cut ends)
# VHH: B18 VHH with P14A, K19R, F24A, G56N, I58K, T83I, P84N, E89K, A110G
# B24: VEGFBII23F11 (VHH, not shown: small tags and cut ends)
# VHH: B18 VHH with S54G, V93D
# B25: VEGFBII23G03 (VHH, not shown: small tags and cut ends)
# VHH: B18 VHH with S30G, T75S, A110P, D111G
# B26: VEGFBII30E07 (VHH, not shown: small tags and cut ends)
# VHH: B18 VHH with P14A, K19R, F24A, G56N, I58K, T83I, P84N, A110G, Q121R
# B27: VEGFBII31C07 (VHH, not shown: small tags and cut ends)
# VHH: B18 VHH with P14T, K19R, F24A, R27G, V93D
# B28: VEGFBII39E02 (VHH, not shown: small tags and cut ends)
# VHH: B18 VHH with S17P, V93D
# B29: VEGFBII39G04 (VHH, not shown: small tags and cut ends)
# VHH: B18 VHH with Q3P, P14A, K19R, F24A, G56N, I58K, V62A, T83I, P84N, A110G
# B30: VEGFBII40G07 (VHH, not shown: small tags and cut ends)
# VHH: B18 VHH with T78A, V93D
# B31: VEGFBII40H10 (VHH, not shown: small tags and cut ends)
# VHH: B18 VHH with V5M, V93D
# B32: VEGFBII42A05 (VHH, not shown: small tags and cut ends)
# VHH: B18 VHH with T83M, V93D
# B33: VEGFBII56E11 (VHH, not shown: small tags and cut ends)
# VHH: B18 VHH with T91A, V93D
# B34: VEGFBII60A09 (VHH, not shown: small tags and cut ends)
# VHH: B18 VHH with K76R, V93D
# B35: VEGFBII62A09 (VHH, not shown: small tags and cut ends)
# VHH: B18 VHH with G10D, F24A
# B36: VEGFBII62D10 (VHH, not shown: small tags and cut ends)
# VHH: B18 VHH with G8E, P14A, K19R, F24A, G56N, I58K, T83I, P84N, A110G
# Key:
# [1] = target: VEGF; test: cell-based or functional assay
# VEGF, sequence (P15692 whole entry): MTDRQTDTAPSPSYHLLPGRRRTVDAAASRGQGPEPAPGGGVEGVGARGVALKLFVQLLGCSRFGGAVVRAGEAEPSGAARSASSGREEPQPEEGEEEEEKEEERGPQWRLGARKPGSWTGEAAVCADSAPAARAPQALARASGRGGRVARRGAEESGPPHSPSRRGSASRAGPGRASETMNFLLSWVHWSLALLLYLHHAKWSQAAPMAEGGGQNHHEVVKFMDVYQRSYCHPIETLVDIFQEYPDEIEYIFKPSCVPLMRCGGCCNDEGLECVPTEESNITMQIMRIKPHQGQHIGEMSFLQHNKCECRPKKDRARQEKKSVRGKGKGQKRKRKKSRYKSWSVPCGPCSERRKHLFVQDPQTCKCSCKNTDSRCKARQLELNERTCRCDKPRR
# [2] = target: VEGF; test: cell-based or functional assay; remark: listed apart in the source
# [3] = target: T1, recombinant human VEGF165 (human, UniProt P15692-4 27-191, biotinylated (Sulfo-NHS-LC-Biotin) in the competition assays); test: Biacore, periplasmic extract, VEGF165 chip, two phase decay fit; design: unit not given here
# T1 construct: also called hVEGF165; rhVEGF165
# T1 sequence (P15692 other isoform, or with tags, fused parts or gaps limits assumed): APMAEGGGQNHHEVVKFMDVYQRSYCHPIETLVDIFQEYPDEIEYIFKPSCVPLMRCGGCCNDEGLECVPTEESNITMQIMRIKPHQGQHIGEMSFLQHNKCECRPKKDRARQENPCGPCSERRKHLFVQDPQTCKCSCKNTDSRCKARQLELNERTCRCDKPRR
# Method: Dissociation rates of inhibitory VHHs are analyzed on Biacore (Biacore T100 instrument, GE Healthcare). HBS-EP+ buffer is used as running buffer and experiments are performed at 25° C. […] After immobilization, surfaces are deactivated with 10 min injection of 1 M ethanolamine pH8.5. A reference surface is activated and deactivated with respectively EDC/NHS and ethanolamine. Periplasmic extracts of VHHs are injected at a 10-fold dilution in running buffer for 2 min at 45 μl/min and allowed to dissociate for 10 or 15 min. Between different samples, the surfaces are regenerated with regeneration buffer. Data are double referenced by subtraction of the curves on the reference channel and of a blank running buffer injection. […] is evaluated by fitting a two phase decay model in the Biacore T100 Evaluation software v2.0.1.
binder,measurement,setting,value
B1,"HUVEC proliferation, % inhibition",[1],95%
same,"HUVEC proliferation, IC50",[1],0.22 nM
same,"HUVEC Erk phosphorylation, % inhibition",[2],92%
same,"HUVEC Erk phosphorylation, IC50",[2],0.19 nM
B2,"HUVEC proliferation, % inhibition",[1],98%
same,"HUVEC proliferation, IC50",[1],0.4 nM
same,"HUVEC Erk phosphorylation, % inhibition",[2],103%
same,"HUVEC Erk phosphorylation, IC50",[2],0.21 nM
B3,kd(fast),[3],0.015
same,kd(slow),[3],3.2e-05
B4,kd(fast),[3],0.022
same,kd(slow),[3],4.7e-05
B5,kd(fast),[3],0.018
same,kd(slow),[3],0.00011
B6,kd(fast),[3],0.013
same,kd(slow),[3],5e-05
B7,kd(fast),[3],0.019
same,kd(slow),[3],5.8e-05
B8,kd(fast),[3],0.015
same,kd(slow),[3],6.9e-05
B9,kd(fast),[3],0.024
same,kd(slow),[3],8.1e-05
B10,kd(fast),[3],0.013
same,kd(slow),[3],3.8e-05
B11,kd(fast),[3],0.015
same,kd(slow),[3],7.6e-05
B12,kd(fast),[3],0.012
same,kd(slow),[3],9.8e-05
B13,kd(fast),[3],0.019
same,kd(slow),[3],0.00012
B14,kd(fast),[3],0.012
same,kd(slow),[3],0.00027
B15,kd(fast),[3],0.0091
same,kd(slow),[3],0.0005
B16,kd(fast),[3],0.0074
same,kd(slow),[3],0.00017
B17,kd(fast),[3],0.014
same,kd(slow),[3],8.5e-05
B18,kd(fast),[3],0.033
same,kd(slow),[3],0.00015
B19,kd(fast),[3],0.037
same,kd(slow),[3],4e-05
B20,kd(fast),[3],0.038
same,kd(slow),[3],9e-05
B21,kd(fast),[3],0.015
same,kd(slow),[3],7.8e-05
B22,kd(fast),[3],0.027
same,kd(slow),[3],4.6e-05
B23,kd(fast),[3],0.016
same,kd(slow),[3],0.00013
B24,kd(fast),[3],0.027
same,kd(slow),[3],0.00013
B25,kd(fast),[3],0.028
same,kd(slow),[3],8.6e-05
B26,kd(fast),[3],0.017
same,kd(slow),[3],0.00013
B27,kd(fast),[3],0.037
same,kd(slow),[3],0.00015
B28,kd(fast),[3],0.019
same,kd(slow),[3],0.00024
B29,kd(fast),[3],0.014
same,kd(slow),[3],0.00074
B30,kd(fast),[3],0.018
same,kd(slow),[3],0.00032
B31,kd(fast),[3],0.014
same,kd(slow),[3],0.00029
B32,kd(fast),[3],0.016
same,kd(slow),[3],0.00034
B33,kd(fast),[3],0.033
same,kd(slow),[3],0.00014
B34,kd(fast),[3],0.037
same,kd(slow),[3],9.3e-05
B35,kd(fast),[3],0.041
same,kd(slow),[3],0.00011
B36,kd(fast),[3],0.019
same,kd(slow),[3],0.00016

# Reference: patent publication US20200308267A1 (Boehringer Ingelheim, published 2020)
